The text below walks through data of patent US11879134.

The subject of data set [1] is Type I-B Cas complex (Clo1313_2969-2976; Cas3, Cas5, Cas8, Cas6, DevR) (Clostridium thermocellum). Kind of data set: cell_activity.
Data set [2] deals with ThermoCas9. Kind of data set: cell_activity. To be noted: PAM NNNNCNAA; no cell killing observed.

On to “AUAAUGACAUUUAUGGUACUGUUGUGGUAAUAGACGA / CAGTTAATAATGACATTTATGGTACTGTTGTGGTAATAGACGA / TCGTCTATTACCACAACAGTACCATAAATGTCATTATTAACTG”, for which the activity in data set [1] (PAM 5'-CAGTTA, plasmid interference, strong spacer promoter, spacer sequence from Table 1 pTY series, scale: fold decrease in transformation efficiency) stood at 10. Sequence “CUUGAAGGCAUGAGGGUGUUUUAUGAAACUUGCAAAU / CTTGAAGGCATGAGGGTGTTTTATGAAACTTGCAAAT / ATTTGCAAGTTTCATAAAACACCCTCATGCCTTCAAG” came in with an activity in data set [1] (no-PAM (GGC) control, target spacer gives 7 CFU/ug) of 18000 CFU/µg DNA. Consider “GCAUAUUUGUUCUGGUCAAG / GCATATTTGTTCTGGTCAAG / CTTGACCAGAACAAATATGC [ThermoCas9 sgRNA#1 spacer ; pyrF site, ThermoCas9 #1]”, for which the activity (% cell killing) in data set [2] turned out to be 0.

With “UGAGAUUGUUGCGGAGUAUGUUGAAUCAUGGGGUGAA / TGAGATTGTTGCGGAGTATGTTGAATCATGGGGTGAA / TTCACCCCATGATTCAACATACTCCGCAACAATCTCA [Type I-B pyrF target spacer ; pyrF site, Type I-B, PAM TTA]”, the activity (% cell killing) in data set [1] (PAM 5'-TTA, strain LL1586, chromosomal pyrF, 65.8% with native cas promoter) was 99.8.
